Data published in patent US20250340595A1 (published 2025).
Values belong to the binder of their own block, whether it stands above or below them. Starred links: 1 amine or outer side, 2 acyl side, 3 side chain; linkers in the order of their positions; H or OH if unused. Positions of bridges follow the written chain, without caps; N, C: chain ends. No end group written: not given here. TATA = O=C(CC[*:1])N1CN(C(=O)CC[*:2])CN(C(=O)CC[*:3])C1

What was measured:
[1] = molecular target: T1, Recombinant human TfR1, His6-tagged (a.a. 89-760) (human, UniProt P02786 89-760); assay: SPR, TfR1 on chip
T1 construct: range 89-760; captured and coupled on an NTA chip for SPR; also called transferrin receptor 1; CD71

[2] = molecular target: T2, Recombinant cynomolgus TfR1, His6-tagged (a.a. 89-760) (cynomolgus, UniProt H9EXL1 89-760 (rhesus entry)); assay: SPR, TfR1 on chip
T2 construct: range 89-760; same product number named for FP and SPR; also called Cyno TfR1; Acro Biosystems TFR-C524a

[3] = molecular target: Human TfR1 protein (R&D Systems, 2474-TR or Acro Biosystems, CD1-H5243) (human, UniProt P02786 89-760); assay: Alpha assay, competition with labelled transferrin
Human TfR1 protein (R&D Systems, 2474-TR or Acro Biosystems, CD1-H5243), sequence (P02786 89-760 limits assumed): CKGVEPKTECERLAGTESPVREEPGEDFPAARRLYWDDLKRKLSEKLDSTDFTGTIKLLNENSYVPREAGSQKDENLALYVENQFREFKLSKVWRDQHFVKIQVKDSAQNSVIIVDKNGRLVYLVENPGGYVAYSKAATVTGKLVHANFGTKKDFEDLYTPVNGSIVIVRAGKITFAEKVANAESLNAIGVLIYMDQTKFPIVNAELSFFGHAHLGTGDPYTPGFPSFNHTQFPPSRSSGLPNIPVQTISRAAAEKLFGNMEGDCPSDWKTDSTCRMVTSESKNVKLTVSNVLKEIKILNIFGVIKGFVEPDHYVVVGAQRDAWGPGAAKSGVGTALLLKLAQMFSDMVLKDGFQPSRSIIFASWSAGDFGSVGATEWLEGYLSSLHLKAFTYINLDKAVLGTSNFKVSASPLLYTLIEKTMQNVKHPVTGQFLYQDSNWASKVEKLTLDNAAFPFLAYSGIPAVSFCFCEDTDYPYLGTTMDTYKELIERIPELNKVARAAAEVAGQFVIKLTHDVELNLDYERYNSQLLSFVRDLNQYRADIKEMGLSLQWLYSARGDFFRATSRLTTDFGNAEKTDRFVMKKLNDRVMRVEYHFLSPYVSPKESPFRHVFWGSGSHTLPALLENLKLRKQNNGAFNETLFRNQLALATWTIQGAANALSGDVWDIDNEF

T1 sequence (P02786 89-760 limits assumed): as above
T2 sequence (chain, as listed by the source): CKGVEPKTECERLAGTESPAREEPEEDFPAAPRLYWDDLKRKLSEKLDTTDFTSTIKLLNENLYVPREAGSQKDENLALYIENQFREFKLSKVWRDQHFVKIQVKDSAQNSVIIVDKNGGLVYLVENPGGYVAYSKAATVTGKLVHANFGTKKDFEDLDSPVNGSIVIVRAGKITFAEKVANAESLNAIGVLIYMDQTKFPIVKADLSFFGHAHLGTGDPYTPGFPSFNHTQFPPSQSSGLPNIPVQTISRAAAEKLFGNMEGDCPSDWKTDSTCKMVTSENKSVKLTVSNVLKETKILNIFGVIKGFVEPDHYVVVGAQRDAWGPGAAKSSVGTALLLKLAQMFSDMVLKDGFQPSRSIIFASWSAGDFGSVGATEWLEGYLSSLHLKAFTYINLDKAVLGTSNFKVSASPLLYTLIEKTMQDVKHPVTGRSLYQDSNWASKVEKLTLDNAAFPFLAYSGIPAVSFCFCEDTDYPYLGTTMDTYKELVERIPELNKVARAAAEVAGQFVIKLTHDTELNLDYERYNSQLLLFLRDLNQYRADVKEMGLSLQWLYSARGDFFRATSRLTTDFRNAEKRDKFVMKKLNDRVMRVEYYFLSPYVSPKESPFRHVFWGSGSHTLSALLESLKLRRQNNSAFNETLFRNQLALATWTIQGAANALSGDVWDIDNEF

- Kd [1]: 65600 nM
- Kd [2]: 42400 nM
- IC50 [3]: 673 nM
Binder: ACALCNDWTLPWHHCA (3 Cys on TATA) [BCY12455]

- IC50 [3]: 893 nM
Binder: ACLEACYDGVYWYSCA (3 Cys on TATA) [BCY12454]

- IC50 [3]: 1220 nM
B1: BCY12452 (peptide)
peptide: ACREFFDTCGLAFIECA-NH2
modifications: linker 2-9-16 via TATA; N-terminus assumed
SMILES: CC[C@H](C)[C@@H]1NC(=O)[C@H](Cc2ccccc2)NC(=O)[C@H](C)NC(=O)[C@H](CC(C)C)NC(=O)CNC(=O)[C@@H]2CSCCC(=O)N3CN(CN(C3)C(=O)CCSC[C@@H](C(=O)N[C@@H](C)C(N)=O)NC(=O)[C@H](CCC(=O)O)NC1=O)C(=O)CCSC[C@H](NC(=O)[C@H](C)N)C(=O)N[C@@H](CCCNC(=N)N)C(=O)N[C@@H](CCC(=O)O)C(=O)N[C@@H](Cc1ccccc1)C(=O)N[C@@H](Cc1ccccc1)C(=O)N[C@@H](CC(=O)O)C(=O)N[C@@H]([C@@H](C)O)C(=O)N2
